The subject of this series is MS2 coat protein. Description: apparent KD of MS2 coat protein; designed switch direction (-1 OFF switch, 1 ON switch): -1; higher = weaker reporter binding. The essentials:
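Designed RNA switches with common flanks were made on Illumina chips by stalled E. coli RNA polymerase. Titration with SNAP-549-labelled MS2 coat protein doubled from 0.7 or 1.5 nM up to 3 µM. Apparent KD is each design's median over clusters after curve-fitting normalised fluorescence.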

The mark [1] stands for this setting: input ligand: microRNA oligo, concentration not stated.
Where [2] appears, read: Eterna round: R95, input ligand: microRNA oligo, concentration not stated.
Setting [3] is: Eterna round: R95, input ligand: FMN 200 uM.
The mark [4] stands for this setting: Eterna round: R95, input ligand: none.

30 sequences from the supplement of paper PMC9170038 can be followed below.

In the case of “CACCUGAACACAGGAUAUCCUACAUGAGGAUCACCCAUGUAAUAAAUGAGAAUUUCGAAUGUAAUGGAGAAGGGUGGAUAAGGC [Ostracism 89 - Jieux - Exclusion NG 2] (Eterna round: R96, puzzle: Exclusion NG 2)”, the “apparent KD of MS2 coat protein” value is, setting by setting: (input ligand: FMN 200 uM) 0.137 µM; under setting [1], 0.0812 µM; (input ligand: none) 0.0972 µM.

As for “CACCUGAAUACAGGAUAUCCUACAUGAGGAUCACCCAUGUAAUAAAUGAGAAUUUCGAAUGUAAUGGAGAAGGGUAGAUAAGGC [Ostracism 88 - Jieux - Exclusion NG 2] (Eterna round: R96, puzzle: Exclusion NG 2)”, the “apparent KD of MS2 coat protein” value was determined as 0.125 µM (input ligand: FMN 200 uM), 0.0828 µM under setting [1] and 0.0866 µM (input ligand: none).

Turning to “CACGAGCUAGGAUAUACAUGAGGAUCACCCAUGUAAGUCAUGCGGUCACAUCUGACAGGUAGAAGGAGCGCGUC [Teaertete] (puzzle: Exclusion 3)”, the “apparent KD of MS2 coat protein” value under setting [2] came out at 0.0375 µM.

As for “CACUAACAUGAGGAUCACCCAUGUUAGGAUAUGCAGUUCGGCCAACGGGCCCGAACAUGUAGAAGGAACAGGGU [Eternabot (L2) Solution 44] (Eterna round: R97, puzzle: Exclusion 1)”, the “apparent KD of MS2 coat protein” value by setting is: (input ligand: FMN 200 uM) 0.0813 µM; (input ligand: none) 0.0258 µM.

“CACUUACAUGAGGAUCACCCAUGUGAGGAUAUCGUGACCUGACGAGAAGUCAAUGUCACGAGAAGGUACAUGGG [Exclusion 1 (Mod 1 solution 97 by Eternabot)] (Eterna round: R97, puzzle: Exclusion 1)”: the “apparent KD of MS2 coat protein” value by setting is: (input ligand: FMN 200 uM) 0.0593 µM; (input ligand: none) 0.0682 µM.

As for “CAGAAACAUGAGGAUCACCCAUGUGAGGAUAUGAAAAAGAAAAGAAAAGAAAGAAGAAUCAGAAGGCACAAAGU [salish99-ex1_r3_086] (puzzle: Exclusion 1)”, the “apparent KD of MS2 coat protein” value stood at 0.0368 µM under setting [3], 0.0324 µM under setting [2] and 0.0357 µM under setting [4].

As for “CAGACACAUGAGGAUCACCCAUGUGAGGAUAUGCGUACGUUGUCCGUAGGCGACGUGCGCAGAAGGCGCAUAGG [JL-ex1-3.11 Eli mod] (puzzle: Exclusion 1)”, the “apparent KD of MS2 coat protein” value is, setting by setting: under setting [3], 0.0517 µM; under setting [2], 0.0743 µM; under setting [4], 0.0501 µM.

Turning to “CAGACGGCCGUAGGAUAUGCAGCAAAGACGUGAGCAGAAGGACGAUACAUGAGGAUCACCCAUGUACGUGGGUAGUGCGCAUGC [Veustean] (Eterna round: R96, puzzle: Exclusion NG 1)”, the “apparent KD of MS2 coat protein” value reads like this: (input ligand: FMN 200 uM) 0.0198 µM; under setting [1], 0.0144 µM; (input ligand: none) 0.0208 µM.

Take “CAGCUGAAAGUGAGGAUAUCUAGAGCCUCGGCUCUAGAGAAGGCACAUGAGGAUCACCCAUGUGAUCACAGCUG [BmEx4/7-A2] (Eterna round: R97, puzzle: Brourd's mod of Exclusion 4)”: the “apparent KD of MS2 coat protein” value came to 1.32 µM (input ligand: FMN 200 uM) and 0.307 µM (input ligand: none).

For “CAGGACAGAGGAUAUACAUAGAUACAGAUUCAUGUAGAACUACAUGAGGAUCACCCAUGUAGAAGGCUGUCCUG [Fiskers Ex 2 - 3] (Eterna round: R96, puzzle: Exclusion 2)”, the “apparent KD of MS2 coat protein” value reads like this: (input ligand: FMN 200 uM) 0.37 µM; under setting [1], 0.025 µM; (input ligand: none) 0.0335 µM.

In the case of “CAGGACAGAGGAUAUACAUAGAUACAGAUUCAUGUAGAACUACAUGAGGAUCACCCAUGUAGAAGGCUGUCCUG [Fiskers Ex 2 - 3] (puzzle: Exclusion 2)”, the “apparent KD of MS2 coat protein” value under setting [2] is 0.0278 µM.

Take “CAGUACUACAAGCUAUGGGACAUGAGGAUCACCCAUGUUCGUCUUAUUGAUCUAGGUACGCUGACGUACCUAGAUCU [JL-sv1-2.19 Brourd mod] (puzzle: Sensor v3, turn-off variant 1)”: the “apparent KD of MS2 coat protein” value amounted to 0.0169 µM under setting [3], 0.0278 µM under setting [2] and 0.0159 µM under setting [4].

Take “CAGUACUACAAGCUUGGGAACAUGAGGAUCACCCAUGUUCGUCUUAUUGAUCUAGGUACGCUGACGUACCUAGAUCU [JL-sv1-2.17 Brourd mod] (puzzle: Sensor v3, turn-off variant 1)”: the “apparent KD of MS2 coat protein” value under setting [3] came to 0.0165 µM, the “apparent KD of MS2 coat protein” value under setting [2] is 0.0271 µM and the “apparent KD of MS2 coat protein” value under setting [4] is 0.0147 µM.

As to “CAGUACUGAGGAUAUACAUGAGGAUCACCCAUGUCUUCCAGCUAGGAUACUAGCAAAUGUAGAAGGCAGUACUG [Mat - Exclusion 3 - Eli Mod - D9] (Eterna round: R97, puzzle: Exclusion 3)”, the “apparent KD of MS2 coat protein” value was 0.428 µM (input ligand: FMN 200 uM) and 0.0681 µM (input ligand: none).

For the sequence “CAGUACUGAGGAUAUACAUGAGGAUCACCCAUGUGAAAUGCAUAGGAAACUAUGCUAUGUAGAAGGCAGUACUG [Eli x3 4.03] (Eterna round: R97, puzzle: Exclusion 3)”, the “apparent KD of MS2 coat protein” value is, setting by setting: (input ligand: FMN 200 uM) 0.108 µM; (input ligand: none) 0.0185 µM.

Turning to “CAGUACUGAGGAUAUACAUGAGGAUCACCCAUGUGCUCUAGCUAGGAUACUAGCAUUAGUAGAAGGCAGUACUG [Fiskers Ex 3 828 mod 8] (Eterna round: R96, puzzle: Exclusion 3)”, the “apparent KD of MS2 coat protein” value is, setting by setting: (input ligand: FMN 200 uM) 0.132 µM; under setting [1], 0.0144 µM; (input ligand: none) 0.0197 µM.

With “CAGUACUGAGGAUAUACAUGAGGAUCACCCAUGUGCUCUAGCUAGGAUACUAGCAUUAGUAGAAGGCAGUACUG [Fiskers Ex 3 828 mod 8] (puzzle: Exclusion 3)”, under setting [2], the “apparent KD of MS2 coat protein” value was 0.0152 µM.

Turning to “CAGUACUGAGGAUAUACAUGAGGAUCACCCAUGUGUUCCAGCUAGGAAACUAGCUAAAGUAGAAGGCAGUACUG [salish99_ex3_r3_092x] (Eterna round: R96, puzzle: Exclusion 3)”, the “apparent KD of MS2 coat protein” value under setting [1] was found to be 0.0177 µM.

Take “CAGUACUGAGGAUAUACAUGAGGAUCACCCAUGUGUUCCAGCUAGGAAACUAGCUAAAGUAGAAGGCAGUACUG [salish99_ex3_r3_092x] (puzzle: Exclusion 3)”: the “apparent KD of MS2 coat protein” value worked out at 0.459 µM under setting [3], 0.0241 µM under setting [2] and 0.025 µM under setting [4].

Regarding “CAGUACUGAGGAUAUACAUGAGGAUCACCCAUGUGUUCCAGCUAGGAUACUAGCAAAGGAAGAAGGCAGUACUG [Mat - Exclusion 3 - Eli Mod - D2] (Eterna round: R97, puzzle: Exclusion 3)”, the “apparent KD of MS2 coat protein” value (input ligand: FMN 200 uM) turned out to be 0.0194 µM and the “apparent KD of MS2 coat protein” value (input ligand: none) was found to be 0.0189 µM.

Turning to “CAGUCAGCGCAGGAUAUCUGCUCGGUGACAGACGGAGAAGGGUGCACAUGAGGAUCACCCAUGUGAAUCUCUAA [Eternabot (Original) Solution 3] (Eterna round: R97, puzzle: Exclusion 6)”, the “apparent KD of MS2 coat protein” value was found to be 0.0214 µM (input ligand: FMN 200 uM) and 0.0285 µM (input ligand: none).

“CAGUCGAUAAGAUCAAUUAAUUAACAUGAGGAUCACCCAUGUGAGGAUAUCAGCUCGUGUAGAGCUGAGAAGGCACAACGACUG [ExNG3/17-A3] (Eterna round: R96, puzzle: Exclusion NG 3)”: the “apparent KD of MS2 coat protein” value was determined as 0.278 µM (input ligand: FMN 200 uM), 0.0517 µM under setting [1] and 0.0602 µM (input ligand: none).

As to “CAGUCGAUAAGAUCAAUUAAUUAACAUGAGGAUCACCCAUGUGAGGAUAUCAGCUCGUUUAGAGCUGAGAAGGCACAACGACUG [ExNG3/17-A2] (Eterna round: R96, puzzle: Exclusion NG 3)”, the “apparent KD of MS2 coat protein” value (input ligand: FMN 200 uM) was determined as 0.305 µM, the “apparent KD of MS2 coat protein” value under setting [1] stood at 0.0324 µM and the “apparent KD of MS2 coat protein” value (input ligand: none) worked out at 0.0379 µM.

Take “CAGUUCUGACGGAGAUCCAACAUGAGGAUCACCCAUGUCUCAAAAGCUUUUUGCUCGUCUUAUCCUCCUCAGGACUC [Mat - Sensor, turn-off var - Eli Mod - D58] (Eterna round: R97, puzzle: Sensor, turn-off variant 1)”: the “apparent KD of MS2 coat protein” value was 0.0164 µM (input ligand: FMN 200 uM) and 0.0164 µM (input ligand: none).

As to “CAUACGGCAGGAUAUGCGUGGCCAUCUUAGCUCUACCUAAGACAUGAGGAUCACCCAUGUAGAAGGGUUACAUA [Eternabot (Original) Solution 41] (Eterna round: R97, puzzle: Exclusion 2)”, the “apparent KD of MS2 coat protein” value is 0.0205 µM (input ligand: FMN 200 uM) and 0.0198 µM (input ligand: none).

“CAUAGUAAUUAGGAUAUCUGCCGGCUGAGCCGAGGAGAAGGGAUUACAUGAGGAUCACCCAUGUGGUCCUAGAA [Lebireti] (puzzle: Exclusion 6)”: the “apparent KD of MS2 coat protein” value under setting [3] was 0.0313 µM, the “apparent KD of MS2 coat protein” value under setting [2] worked out at 0.0201 µM and the “apparent KD of MS2 coat protein” value under setting [4] amounted to 0.0199 µM.

Take “CAUAUGUGAGGAUAUGACAAUGGUAUCUUCGGAUACCAUUGUCAGAAGGCACAUGAGGAUCACCCAUGUGGAUC [Exclusion 4 - Mod Brourd Ex 4-3: 20 v.5] (puzzle: Exclusion 4)”: the “apparent KD of MS2 coat protein” value under setting [2] amounted to 0.151 µM.

Consider “CAUAUUGUAGGAUAUAUUCGAAAGGUCCUCUUCCCAUACCGACAUGAGGAUCACCCAUGUAGAAGGAUAGUGCC [Eternabot (L2) Solution 13] (Eterna round: R97, puzzle: Exclusion 2)”, for which the “apparent KD of MS2 coat protein” value is 0.0489 µM (input ligand: FMN 200 uM) and 0.0536 µM (input ligand: none).

Turning to “CAUCCGGCAGGAUAUACAUGAGGAUCACCCAUGUCAGAAAGCAAAUUGUGCGACUCAGGUAGAAGGGUUGGACU [Ederusat] (puzzle: Exclusion 3)”, the “apparent KD of MS2 coat protein” value under setting [2] is 0.0211 µM.

As to “CAUCUCGUAGGAUAUUCACAAAAGCACAUGAGGAUCACCCAUGUUAUCCGACAUGAUGCCGAAGAAGGACGAAAAC [Di] (puzzle: Exclusion 5)”, the “apparent KD of MS2 coat protein” value under setting [3] turned out to be 0.107 µM, the “apparent KD of MS2 coat protein” value under setting [2] stood at 0.0798 µM and the “apparent KD of MS2 coat protein” value under setting [4] was found to be 0.0789 µM.
